Reference: patent EP4755449A2 (CHUGAI SEIYAKU KABUSHIKI KAISHA, dated 2026)

T1: human Fc gamma RIIb extracellular domain, His-tagged (human, UniProt P31994 43-217)
T1 construct: also called FcgRIIb
T1 sequence: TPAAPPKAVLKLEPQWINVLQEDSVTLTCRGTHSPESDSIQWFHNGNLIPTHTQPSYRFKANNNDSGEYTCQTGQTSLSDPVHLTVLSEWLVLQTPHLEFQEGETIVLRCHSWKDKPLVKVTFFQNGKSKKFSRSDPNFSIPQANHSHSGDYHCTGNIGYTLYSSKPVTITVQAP

T2: cyno Fc gamma RIIb extracellular domain, His-tagged (cynomolgus monkey)
T2 construct: also called cynoFcgRIIb
T2 chain: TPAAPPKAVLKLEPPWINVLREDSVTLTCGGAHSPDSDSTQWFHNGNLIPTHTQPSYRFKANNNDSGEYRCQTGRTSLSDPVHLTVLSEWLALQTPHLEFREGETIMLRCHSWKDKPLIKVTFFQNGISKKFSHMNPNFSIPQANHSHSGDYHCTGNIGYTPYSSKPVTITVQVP


How the values were obtained:
[1] = target: T1, human Fc gamma RIIb extracellular …; assay: SPR 25C
[2] = target: T2, cyno Fc gamma RIIb extracellular …; assay: SPR 25C

Row | Binder | binding result [1] | binding result [2] | KD fold vs SG1 [1] [fold]
1 | M103205H795-SG1 K334Y/M103202L889-SK1 (antibody, human IgG1, kappa, copies: 2 + 2) heavy: not shown light: DIVMTQSPATLSLSPGERATLSCTSSQSVYHANWLSWFQQKPGQPPKLLIYWASTLAYGVPSRFSGSGSGTDFTLTISSLQPEDAATYYCAGGYGGGRYAFGQGTKVEIKRTVAAPSVFIFPPSDEQLKSGTASVVCLLNNFYPREAKVQWKVDNALQSGNSQESVTEQDSKDSTYSLSSTLTLSKADYEKHKVYACEVTHQGLSSPVTKSFNRGEC | binds | binds | –
2 | M103205H795-SG1 K326T/M103202L889-SK1 (antibody, human IgG1, kappa, copies: 2 + 2) heavy: not shown light: DIVMTQSPATLSLSPGERATLSCTSSQSVYHANWLSWFQQKPGQPPKLLIYWASTLAYGVPSRFSGSGSGTDFTLTISSLQPEDAATYYCAGGYGGGRYAFGQGTKVEIKRTVAAPSVFIFPPSDEQLKSGTASVVCLLNNFYPREAKVQWKVDNALQSGNSQESVTEQDSKDSTYSLSSTLTLSKADYEKHKVYACEVTHQGLSSPVTKSFNRGEC | binds | binds | –
3 | M103205H795-SG1 E233D/M103202L889-SK1 (antibody, human IgG1, kappa, copies: 2 + 2) heavy: not shown light: DIVMTQSPATLSLSPGERATLSCTSSQSVYHANWLSWFQQKPGQPPKLLIYWASTLAYGVPSRFSGSGSGTDFTLTISSLQPEDAATYYCAGGYGGGRYAFGQGTKVEIKRTVAAPSVFIFPPSDEQLKSGTASVVCLLNNFYPREAKVQWKVDNALQSGNSQESVTEQDSKDSTYSLSSTLTLSKADYEKHKVYACEVTHQGLSSPVTKSFNRGEC | binds | binds | –
4 | M103205H795-SG1 I332D/M103202L889-SK1 (antibody, human IgG1, kappa, copies: 2 + 2) heavy: not shown light: DIVMTQSPATLSLSPGERATLSCTSSQSVYHANWLSWFQQKPGQPPKLLIYWASTLAYGVPSRFSGSGSGTDFTLTISSLQPEDAATYYCAGGYGGGRYAFGQGTKVEIKRTVAAPSVFIFPPSDEQLKSGTASVVCLLNNFYPREAKVQWKVDNALQSGNSQESVTEQDSKDSTYSLSSTLTLSKADYEKHKVYACEVTHQGLSSPVTKSFNRGEC | binds | binds | –
5 | MS103205H795-PK2/M103202L889-SK1 (antibody, also called MS1032LO06-PK2; copies: 2 + 2) heavy: QVTLKESGPVLVKPTETLTLTCTVSGIDLSHDDISWVRQAPGKGLEWVGIISYAGSTYYASWAKGRLTISKDTSKNQVVLTMTNMDPVDTATYYCARGVPAYSHGGDLWGQGTLVTVSSASTKGPSVFPLAPSSKSTSGGTAALGCLVKDYFPEPVTVSWNSGALTSGVHTFPAVLQSSGLYSLSSVVTVPSSSLGTQTYICNVNHKPSNTKVDKKVEPKSCDKTHTCPPCPAPELLNGPSVFLFPPKPKDTLMISRTPEVTCVVVDVSEEDPEVKFNWYVDGVEVHNAKTKPREEQYNSTYRVVSVLTVLHQDWLNGKEYKCKVSNKALPKPIEKTISKAKGQPREPQVYTLPPSREEMTKNQVSLTCLVKGFYPSDIAVEWESNGQPENNYKTTPMVLDRDGSFFLYSKLTVKKSRWQQGNVFSCSVMHEALHNHYTQKSLSLSP light: DIVMTQSPATLSLSPGERATLSCTSSQSVYHANWLSWFQQKPGQPPKLLIYWASTLAYGVPSRFSGSGSGTDFTLTISSLQPEDAATYYCAGGYGGGRYAFGQGTKVEIKRTVAAPSVFIFPPSDEQLKSGTASVVCLLNNFYPREAKVQWKVDNALQSGNSQESVTEQDSKDSTYSLSSTLTLSKADYEKHKVYACEVTHQGLSSPVTKSFNRGEC | – | – | 8
6 | M103205H795-SG1 P331E/M103202L889-SK1 (antibody, human IgG1, kappa, copies: 2 + 2) heavy: not shown light: DIVMTQSPATLSLSPGERATLSCTSSQSVYHANWLSWFQQKPGQPPKLLIYWASTLAYGVPSRFSGSGSGTDFTLTISSLQPEDAATYYCAGGYGGGRYAFGQGTKVEIKRTVAAPSVFIFPPSDEQLKSGTASVVCLLNNFYPREAKVQWKVDNALQSGNSQESVTEQDSKDSTYSLSSTLTLSKADYEKHKVYACEVTHQGLSSPVTKSFNRGEC | binds | binds | –
7 | M103205H795-SG1 G236A/M103202L889-SK1 (antibody, human IgG1, kappa, copies: 2 + 2) heavy: not shown light: DIVMTQSPATLSLSPGERATLSCTSSQSVYHANWLSWFQQKPGQPPKLLIYWASTLAYGVPSRFSGSGSGTDFTLTISSLQPEDAATYYCAGGYGGGRYAFGQGTKVEIKRTVAAPSVFIFPPSDEQLKSGTASVVCLLNNFYPREAKVQWKVDNALQSGNSQESVTEQDSKDSTYSLSSTLTLSKADYEKHKVYACEVTHQGLSSPVTKSFNRGEC | binds | binds | –
8 | M103205H795-SG1 H268E/M103202L889-SK1 (antibody, human IgG1, kappa, copies: 2 + 2) heavy: not shown light: DIVMTQSPATLSLSPGERATLSCTSSQSVYHANWLSWFQQKPGQPPKLLIYWASTLAYGVPSRFSGSGSGTDFTLTISSLQPEDAATYYCAGGYGGGRYAFGQGTKVEIKRTVAAPSVFIFPPSDEQLKSGTASVVCLLNNFYPREAKVQWKVDNALQSGNSQESVTEQDSKDSTYSLSSTLTLSKADYEKHKVYACEVTHQGLSSPVTKSFNRGEC | binds | binds | –
9 | MS103205H795-MY351/M103202L889-SK1 (antibody, also called MS1032LO06-MY351; copies: 2 + 2) heavy: QVTLKESGPVLVKPTETLTLTCTVSGIDLSHDDISWVRQAPGKGLEWVGIISYAGSTYYASWAKGRLTISKDTSKNQVVLTMTNMDPVDTATYYCARGVPAYSHGGDLWGQGTLVTVSSASTKGPSVFPLAPSSKSTSGGTAALGCLVKDYFPEPVTVSWNSGALTSGVHTFPAVLQSSGLYSLSSVVTVPSSSLGTQTYICNVNHKPSNTKVDKKVEPKSCDKTHTCPPCPAPELLNGPSVFLFPPKPKDTLMISRTPEVTCVVVDVSDEDPEVKFNWYVDGVEVHNAKTKPREEQYNSTYRVVSVLTVLHRDWLNGKEYKCKVSNKALPKPIEKTISKAKGQPREPQVYTLPPSREEMTKNQVSLTCLVKGFYPSDIAVEWESNGQPENNYKTTPPVLDSDGSFFLYSKLTVKKSRWQQGNVFSCSVMHEALHNHYTQKSLSLSP light: DIVMTQSPATLSLSPGERATLSCTSSQSVYHANWLSWFQQKPGQPPKLLIYWASTLAYGVPSRFSGSGSGTDFTLTISSLQPEDAATYYCAGGYGGGRYAFGQGTKVEIKRTVAAPSVFIFPPSDEQLKSGTASVVCLLNNFYPREAKVQWKVDNALQSGNSQESVTEQDSKDSTYSLSSTLTLSKADYEKHKVYACEVTHQGLSSPVTKSFNRGEC | – | – | 5

Continued, values first:

Row | binding result [1] | binding result [2] | KD fold vs SG1 [1] [fold] | Binder
10 | binds | binds | – | M103205H795-SG1 K334V/M103202L889-SK1 (antibody, human IgG1, kappa, copies: 2 + 2) heavy: not shown light: DIVMTQSPATLSLSPGERATLSCTSSQSVYHANWLSWFQQKPGQPPKLLIYWASTLAYGVPSRFSGSGSGTDFTLTISSLQPEDAATYYCAGGYGGGRYAFGQGTKVEIKRTVAAPSVFIFPPSDEQLKSGTASVVCLLNNFYPREAKVQWKVDNALQSGNSQESVTEQDSKDSTYSLSSTLTLSKADYEKHKVYACEVTHQGLSSPVTKSFNRGEC
11 | binds | binds | – | M103205H795-SG1 K334I/M103202L889-SK1 (antibody, human IgG1, kappa, copies: 2 + 2) heavy: not shown light: DIVMTQSPATLSLSPGERATLSCTSSQSVYHANWLSWFQQKPGQPPKLLIYWASTLAYGVPSRFSGSGSGTDFTLTISSLQPEDAATYYCAGGYGGGRYAFGQGTKVEIKRTVAAPSVFIFPPSDEQLKSGTASVVCLLNNFYPREAKVQWKVDNALQSGNSQESVTEQDSKDSTYSLSSTLTLSKADYEKHKVYACEVTHQGLSSPVTKSFNRGEC
12 | binds | binds | – | M103205H795-SG1 Q295L/M103202L889-SK1 (antibody, human IgG1, kappa, copies: 2 + 2) heavy: not shown light: DIVMTQSPATLSLSPGERATLSCTSSQSVYHANWLSWFQQKPGQPPKLLIYWASTLAYGVPSRFSGSGSGTDFTLTISSLQPEDAATYYCAGGYGGGRYAFGQGTKVEIKRTVAAPSVFIFPPSDEQLKSGTASVVCLLNNFYPREAKVQWKVDNALQSGNSQESVTEQDSKDSTYSLSSTLTLSKADYEKHKVYACEVTHQGLSSPVTKSFNRGEC
13 | binds | binds | – | M103205H795-SG1 P396M/M103202L889-SK1 (antibody, human IgG1, kappa, copies: 2 + 2) heavy: not shown light: DIVMTQSPATLSLSPGERATLSCTSSQSVYHANWLSWFQQKPGQPPKLLIYWASTLAYGVPSRFSGSGSGTDFTLTISSLQPEDAATYYCAGGYGGGRYAFGQGTKVEIKRTVAAPSVFIFPPSDEQLKSGTASVVCLLNNFYPREAKVQWKVDNALQSGNSQESVTEQDSKDSTYSLSSTLTLSKADYEKHKVYACEVTHQGLSSPVTKSFNRGEC
14 | binds | binds | – | M103205H795-SG1 P271G/M103202L889-SK1 (antibody, human IgG1, kappa, copies: 2 + 2) heavy: not shown light: DIVMTQSPATLSLSPGERATLSCTSSQSVYHANWLSWFQQKPGQPPKLLIYWASTLAYGVPSRFSGSGSGTDFTLTISSLQPEDAATYYCAGGYGGGRYAFGQGTKVEIKRTVAAPSVFIFPPSDEQLKSGTASVVCLLNNFYPREAKVQWKVDNALQSGNSQESVTEQDSKDSTYSLSSTLTLSKADYEKHKVYACEVTHQGLSSPVTKSFNRGEC
15 | binds | binds | – | M103205H795-SG1 L235W/M103202L889-SK1 (antibody, human IgG1, kappa, copies: 2 + 2) heavy: not shown light: DIVMTQSPATLSLSPGERATLSCTSSQSVYHANWLSWFQQKPGQPPKLLIYWASTLAYGVPSRFSGSGSGTDFTLTISSLQPEDAATYYCAGGYGGGRYAFGQGTKVEIKRTVAAPSVFIFPPSDEQLKSGTASVVCLLNNFYPREAKVQWKVDNALQSGNSQESVTEQDSKDSTYSLSSTLTLSKADYEKHKVYACEVTHQGLSSPVTKSFNRGEC
16 | binds | binds | – | M103205H795-SG1 K334M/M103202L889-SK1 (antibody, human IgG1, kappa, copies: 2 + 2) heavy: not shown light: DIVMTQSPATLSLSPGERATLSCTSSQSVYHANWLSWFQQKPGQPPKLLIYWASTLAYGVPSRFSGSGSGTDFTLTISSLQPEDAATYYCAGGYGGGRYAFGQGTKVEIKRTVAAPSVFIFPPSDEQLKSGTASVVCLLNNFYPREAKVQWKVDNALQSGNSQESVTEQDSKDSTYSLSSTLTLSKADYEKHKVYACEVTHQGLSSPVTKSFNRGEC
17 | binds | binds | – | M103205H795-SG1 L234W/M103202L889-SK1 (antibody, human IgG1, kappa, copies: 2 + 2) heavy: not shown light: DIVMTQSPATLSLSPGERATLSCTSSQSVYHANWLSWFQQKPGQPPKLLIYWASTLAYGVPSRFSGSGSGTDFTLTISSLQPEDAATYYCAGGYGGGRYAFGQGTKVEIKRTVAAPSVFIFPPSDEQLKSGTASVVCLLNNFYPREAKVQWKVDNALQSGNSQESVTEQDSKDSTYSLSSTLTLSKADYEKHKVYACEVTHQGLSSPVTKSFNRGEC
